This experiment has as its target T1, Proteinase-Activated Receptor-2 (human, on human keratinocytes) (human, UniProt P55085 37-397).
T1 sequence (looked up): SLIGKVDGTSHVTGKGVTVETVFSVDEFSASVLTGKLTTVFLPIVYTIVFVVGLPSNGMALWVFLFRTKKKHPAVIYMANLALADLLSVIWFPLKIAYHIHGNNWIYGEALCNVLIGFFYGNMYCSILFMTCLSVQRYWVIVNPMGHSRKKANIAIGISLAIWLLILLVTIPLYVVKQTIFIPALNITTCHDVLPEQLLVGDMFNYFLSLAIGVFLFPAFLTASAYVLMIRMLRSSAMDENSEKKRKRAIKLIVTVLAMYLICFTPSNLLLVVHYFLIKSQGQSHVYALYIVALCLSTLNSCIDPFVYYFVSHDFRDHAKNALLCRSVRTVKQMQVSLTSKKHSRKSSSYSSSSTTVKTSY
Put plainly: cell-based or functional assay.
Turning to Ac-FMRFIS-NH2 [Ac-L-Phe-L-Met-L-Arg-L-Phe-L-Ile-L-Ser-NH2], the “Inhibition PAR-2 activity (calcium fluorescence, human keratinocytes, peptide at 1 mg/mL)” value is 35.1% and the “PAR-2 activity (calcium fluorescence, human keratinocytes, peptide at 1 mg/mL)” value is 64.9%.
Ac-FFQDIS-NH2 [Ac-L-Phe-L-Phe-L-Gln-L-Asp-L-Ile-L-Ser-NH2]: the “Inhibition PAR-2 activity (calcium fluorescence, human keratinocytes, peptide at 1 mg/mL)” value was 27% and the “PAR-2 activity (calcium fluorescence, human keratinocytes, peptide at 1 mg/mL)” value was 73%.
In the same order, the values of Ac-FMWFHS-NH2 [Ac-L-Phe-L-Met-L-Trp-L-Phe-L-His-L-Ser-NH2] are 72.2% and 27.8%.
Turning to Ac-SFRFIS-NH2 [Ac-L-Ser-L-Phe-L-Arg-L-Phe-L-Ile-L-Ser-NH2], the “Inhibition PAR-2 activity (calcium fluorescence, human keratinocytes, peptide at 1 mg/mL)” value stood at 16.2% and the “PAR-2 activity (calcium fluorescence, human keratinocytes, peptide at 1 mg/mL)” value amounted to 83.8%.
For Ac-FMQFIS-NH2 [Ac-L-Phe-L-Met-L-Gln-L-Phe-L-Ile-L-Ser-NH2], in that order: 89.1% and 10.9%.
On to Ac-FFWDIS-NH2 [Ac-L-Phe-L-Phe-L-Trp-L-Asp-L-Ile-L-Ser-NH2], for which the “Inhibition PAR-2 activity (calcium fluorescence, human keratinocytes, peptide at 1 mg/mL)” value came to 38.4% and the “PAR-2 activity (calcium fluorescence, human keratinocytes, peptide at 1 mg/mL)” value amounted to 61.6%.
In the same order, the values of Ac-SFQFIS-NH2 [Ac-L-Ser-L-Phe-L-Gln-L-Phe-L-Ile-L-Ser-NH2] are 39% and 61%.
For Ac-FMWFIS-NH2 [Ac-L-Phe-L-Met-L-Trp-L-Phe-L-Ile-L-Ser-NH2], in that order: 67.7% and 32.3%.
With Ac-FMRDHS-NH2 [Ac-L-Phe-L-Met-L-Arg-L-Asp-L-His-L-Ser-NH2], the “Inhibition PAR-2 activity (calcium fluorescence, human keratinocytes, peptide at 1 mg/mL)” value amounted to 66.9% and the “PAR-2 activity (calcium fluorescence, human keratinocytes, peptide at 1 mg/mL)” value is 33.1%.
For Ac-SMWFIS-NH2 [Ac-L-Ser-L-Met-L-Trp-L-Phe-L-Ile-L-Ser-NH2], in that order: 67.8% and 32.2%.
On to Ac-FFQFIS-NH2 [Ac-L-Phe-L-Phe-L-Gln-L-Phe-L-Ile-L-Ser-NH2], for which the “Inhibition PAR-2 activity (calcium fluorescence, human keratinocytes, peptide at 1 mg/mL)” value was found to be 59.3% and the “PAR-2 activity (calcium fluorescence, human keratinocytes, peptide at 1 mg/mL)” value stood at 40.7%.
As to Ac-FFWFHS-NH2 [Ac-L-Phe-L-Phe-L-Trp-L-Phe-L-His-L-Ser-NH2], the “Inhibition PAR-2 activity (calcium fluorescence, human keratinocytes, peptide at 1 mg/mL)” value amounted to 49.2% and the “PAR-2 activity (calcium fluorescence, human keratinocytes, peptide at 1 mg/mL)” value amounted to 50.8%.
For Ac-SMQFIS-NH2 [Ac-L-Ser-L-Met-L-Gln-L-Phe-L-Ile-L-Ser-NH2], in that order: 52.6% and 47.4%.
Ac-SMWFHS-NH2 [Ac-L-Ser-L-Met-L-Trp-L-Phe-L-His-L-Ser-NH2]: the “Inhibition PAR-2 activity (calcium fluorescence, human keratinocytes, peptide at 1 mg/mL)” value stood at 64.9% and the “PAR-2 activity (calcium fluorescence, human keratinocytes, peptide at 1 mg/mL)” value turned out to be 35.1%.
For Ac-FMWDIS-NH2 [Ac-L-Phe-L-Met-L-Trp-L-Asp-L-Ile-L-Ser-NH2], in that order: 26.5% and 73.5%.
Take Ac-SFWFHS-NH2 [Ac-L-Ser-L-Phe-L-Trp-L-Phe-L-His-L-Ser-NH2]: the “Inhibition PAR-2 activity (calcium fluorescence, human keratinocytes, peptide at 1 mg/mL)” value was determined as 26.4% and the “PAR-2 activity (calcium fluorescence, human keratinocytes, peptide at 1 mg/mL)” value is 73.6%.
